This is an account of results in publication PMC6683498, “The conserved actinobacterial transcriptional regulator FtsR controls expression of ftsZ and further target genes and influences growth and cell division in Corynebacterium glutamicum”.

Series [1] has as its target T1, FtsR-Strep (Corynebacterium glutamicum ATCC13032) (UniProt Q8NQJ2).
T1 sequence: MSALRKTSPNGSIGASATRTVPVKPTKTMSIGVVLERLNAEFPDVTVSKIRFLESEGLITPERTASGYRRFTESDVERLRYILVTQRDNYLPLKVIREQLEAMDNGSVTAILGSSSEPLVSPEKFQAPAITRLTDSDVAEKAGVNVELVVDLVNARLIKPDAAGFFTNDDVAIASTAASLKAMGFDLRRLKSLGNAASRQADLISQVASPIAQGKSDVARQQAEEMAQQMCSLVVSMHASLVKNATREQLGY
As to the kind of experiment: competition. Particulars: EMSA: 10 mM Tris-HCl pH 7.5, 30 mM NaCl, 1.5 mM Na2EDTA, room temperature, 30 min; 15% native PAGE in 1x TBE (competition EMSA: 10% gel). (In EMSA bound probe runs differently from free probe, usually more slowly.)

Series [2] addresses T1, FtsR-Strep (Corynebacterium glutamicum ATCC13032). As to the kind of experiment: EMSA. Particulars: EMSA: 10 mM Tris-HCl pH 7.5, 30 mM NaCl, 1.5 mM Na2EDTA, room temperature, 30 min; 15% native PAGE in 1x TBE (competition EMSA: 10% gel).
Series [3] deals with FtsR-Strep (FtsR, Cg1631, of Corynebacterium glutamicum ATCC13032 with C-terminal StrepTag-II) (Corynebacterium glutamicum ATCC13032). As to the kind of experiment: SEC; affinity-purified FtsR-Strep on Superdex 200 Increase 10/300 GL, buffer W (50 mM Tris-HCl, 250 mM NaCl, pH 7.5), 0.6 mL/min; compared to standard proteins. (Size exclusion chromatography separates by hydrodynamic size, large species first.)

The target in series [4] is T2, FtsR-Strep (Corynebacterium glutamicum ATCC13032, UniProt Q8NQJ2 1-252).
T2 sequence: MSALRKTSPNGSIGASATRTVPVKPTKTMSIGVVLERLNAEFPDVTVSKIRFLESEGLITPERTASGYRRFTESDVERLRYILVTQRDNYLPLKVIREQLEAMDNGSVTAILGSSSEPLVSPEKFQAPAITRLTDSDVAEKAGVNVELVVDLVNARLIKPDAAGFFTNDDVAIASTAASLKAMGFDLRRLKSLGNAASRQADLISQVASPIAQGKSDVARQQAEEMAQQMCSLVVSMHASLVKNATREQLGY
Put plainly: EMSA; 1 uM DNA; complete shift at 2-fold molar excess of dimer; EMSA: 10 mM Tris-HCl pH 7.5, 30 mM NaCl, 1.5 mM Na2EDTA, room temperature, 30 min; 15% native PAGE in 1x TBE (competition EMSA: 10% gel). To be noted: protein: recombinant; chain copies: 2; blunt.

With “AGTGCTTCCTGCGGTTATTGCTGTAATCAACGCAATTAAAGCGCAAGATGCGCAGATGACAGAAAGTATCCAGGTAGTGGAAGCTCCGGATCAATTTGATATCTTGCTGAAAATGAATGATGGCCGGGAAATCTACTGGGGATCCTCGGAAAACAACCACGATAAAGCGGTGGCAATGTCGACTGTTTTGAAGCGGGAAGGCCAACGTTGGAACATTAGCTCACCCTCAATGGTGACAGTCCGCTAAAGTGGCTGGGTAG (double strand)”, the binding entry in series [1] is listed as “no binding”.
On to “AGTTCCGGTTCACCCGTTTCCACAACGCGTTTGCCCACCTCAACAACCCTAAAGTAAAGGTTGAGGGTAGCGACACGCCGCTGTAAATGTCCGACACATTGACGTGTTTTTCGCACAAGATATATGTCAGCCGGATTAACACTTTTAGATAAGCTCTCACAGTGCTGACTGCTTATCTGAGATGAAAATAAAAGCAAAATTTTTTTTAGTATCAACTCTTCGAAAGGCGAGACATCGACAATGACCTCACCGAACAACTACCTCGCCAAGA (double strand) [ftsZ promoter 271-bp fragment, Cy3]”, for which, in series [2], the binding result is given as “binds”.
As for “AGTTCCGGTTCACCCGTTTCCACAACGCGTTTGCCCACCTCAACAACCCTAAAGTAAAGGTTGAGGGTAGCGACACGCCGCTGTAAATGTCCGACACATTGACGTGTTTTTCGCACAAGATATATGTCAGCCGGATTAACACTTTTAGATAAGCTCTCACAGTGCTGACTGCTTATCTGAGATGAAAATAAAAGCAAAATTTTTTTTAGTATCAACTCTTCGAAAGGCGAGACATCGACAATGACCTCACCGAACAACTACCTCGCCAAGA (double strand) [ftsZ promoter 271-bp fragment, unlabeled specific competitor]”, the binding entry in series [1] is on record as “binds”.
In general, stoichiometry N refers to the number of molecules, sites or subunits per partner or assembly. Regarding “FtsR-Strep (FtsR, Cg1631, of Corynebacterium glutamicum ATCC13032 with C-terminal StrepTag-II) (natural protein)”, in series [3], the stoichiometry N is 2.

B1: ftsZ promoter 30-bp oligo (dsDNA)
DNA 1: ACAACCCTAAAGTAAAGGTTGAGGGTAGCG
DNA 2: CGCTACCCTCAACCTTTACTTTAGGGTTGT
In the case of B1, in series [4], the binding result is given as “binds”.
